Source: patent US8895526B2, “Identification of RNAI targets and use of RNAI for rational therapy of chemotherapy-resistant leukemia and other cancers” (Cold Spring Harbor Laboratory, priority 2009, dated 2014)

Tests used:
[1] = test system: tet-on competent MLL/AF9+Nras AML; test: Pooled negative selection RNAi screening (deep sequencing); format: cell-based, mouse; details: deep sequencing reads, On Dox compared to T0
In short: (§1)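 A pool of 1230 tet-regulated shRNAs (TRMPV-type) was retrovirally transduced at mostly single copy and ~1000-fold representation into tet-on MLL/AF9+Nras AML cells or immortalized murine embryonic fibroblasts, then cultured on or off doxycycline. shRNA-expressing cells were FACS-sorted, and shRNA representation was quantified by PCR and deep sequencing of genomic DNA, with depletion on dox compared against t0 and off dox.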

[2] = test system: immortalized murine embryonic fibroblasts (Mef); test: as above; format: cell-based; details: deep sequencing reads, on dox compared to initial representation
In short: as §1

| Molecule | Fold depletion in AML [1] | Fold depletion in Mef [2] [Fold] |
| --- | --- | --- |
| Tex14.3976: shRNA, SEQ ID NO: 185 (nucleic acid) TGCTGTTGACAGTGAGCGCCAGGAGCTACTTGATGAAATTTAGTGAAGCCACAGATGTAAATTTCATCAAGTAGCTCCTGATGCCTACTGCCTCGGA | 9.60 Fold | 1.90 |
| Smpd2.592: shRNA, SEQ ID NO: 183 (nucleic acid) TGCTGTTGACAGTGAGCGACAGCATGTCTACAGTCTGAATTAGTGAAGCCACAGATGTAATTCAGACTGTAGACATGCTGGTGCCTACTGCCTCGGA | 8.63 Fold | 2.89 |
| Fpr1.375: shRNA, SEQ ID NO: 124 (nucleic acid) TGCTGTTGACAGTGAGCGATTGGTTCATGTGCAAATTCATTAGTGAAGCCACAGATGTAATGAATTTGCACATGAACCAACTGCCTACTGCCTCGGA | 9.66 Fold | 3.07 |
| Ogg1.395: shRNA, SEQ ID NO: 157 (nucleic acid) TGCTGTTGACAGTGAGCGACAGATCAAGTATGGACACTGATAGTGAAGCCACAGATGTATCAGTGTCCATACTTGATCTGCTGCCTACTGCCTCGGA | 8.69 Fold | 1.44 |
| Acpp.818: shRNA, SEQ ID NO: 87 (nucleic acid) TGCTGTTGACAGTGAGCGAAAAGAGAAATCTCGACTCCAATAGTGAAGCCACAGATGTATTGGAGTCGAGATTTCTCTTTCTGCCTACTGCCTCGGA | 9.00 Fold | 0.85 |
| AU018778.350: shRNA, SEQ ID NO: 94 (nucleic acid) TGCTGTTGACAGTGAGCGCCTGAAGATTGCCTGTACCTAATAGTGAAGCCACAGATGTATTAGGTACAGGCAATCTTCAGATGCCTACTGCCTCGGA | 8.45 Fold | 1.18 |
| Gart.2713: shRNA, SEQ ID NO: 127 (nucleic acid) TGCTGTTGACAGTGAGCGAACCAGGGTAATTAATCACAAATAGTGAAGCCACAGATGTATTTGTGATTAATTACCCTGGTGTGCCTACTGCCTCGGA | 8.73 Fold | 2.22 |
| Mgst1.549: shRNA, SEQ ID NO: 142 (nucleic acid) TGCTGTTGACAGTGAGCGCAAGGAGCAGACTGTACTTGTATAGTGAAGCCACAGATGTATACAAGTACAGTCTGCTCCTTATGCCTACTGCCTCGGA | 9.14 Fold | 1.09 |
| Nrp1.479: shRNA, SEQ ID NO: 155 (nucleic acid) TGCTGTTGACAGTGAGCGCACCCTCATTCTTACCATCCAATAGTGAAGCCACAGATGTATTGGATGGTAAGAATGAGGGTATGCCTACTGCCTCGGA | 8.19 Fold | 0.83 |
| Aspa.996: shRNA, SEQ ID NO: 92 (nucleic acid) TGCTGTTGACAGTGAGCGCATGAAGCTGCATATTATGAAATAGTGAAGCCACAGATGTATTTCATAATATGCAGCTTCATTTGCCTACTGCCTCGGA | 13.25 Fold | 0.68 |
| Pkm2.2154: shRNA, SEQ ID NO: 166 (nucleic acid) TGCTGTTGACAGTGAGCGCGCCCACCTGAATGTCAATAAATAGTGAAGCCACAGATGTATTTATTGACATTCAGGTGGGCATGCCTACTGCCTCGGA | 9.63 Fold | 1.92 |
| Dnajc10.2057: shRNA, SEQ ID NO: 113 (nucleic acid) TGCTGTTGACAGTGAGCGCTCCAACGACAGTGGTATTCAATAGTGAAGCCACAGATGTATTGAATACCACTGTCGTTGGATTGCCTACTGCCTCGGA | 8.99 Fold | 1.47 |
| Ntrk3.167: shRNA, SEQ ID NO: 156 (nucleic acid) TGCTGTTGACAGTGAGCGCCTGCAGCAAGACTGAGATCAATAGTGAAGCCACAGATGTATTGATCTCAGTCTTGCTGCAGATGCCTACTGCCTCGGA | 8.88 Fold | 1.76 |
| Ccr1.733: shRNA, SEQ ID NO: 101 (nucleic acid) TGCTGTTGACAGTGAGCGCCTGGATTGACTACAAGTTGAATAGTGAAGCCACAGATGTATTCAACTTGTAGTCAATCCAGATGCCTACTGCCTCGGA | 472.15 Fold | 1.18 |
| Klrb1b.845: shRNA, SEQ ID NO: 136 (nucleic acid) TGCTGTTGACAGTGAGCGCCAGATTCTTCATTGTATAAATTAGTGAAGCCACAGATGTAATTTATACAATGAAGAATCTGTTGCCTACTGCCTCGGA | 9.74 Fold | 0.43 |
| Ptpn18.247: shRNA, SEQ ID NO: 170 (nucleic acid) TGCTGTTGACAGTGAGCGCCACGAACAAGAACCGCTACAATAGTGAAGCCACAGATGTATTGTAGCGGTTCTTGTTCGTGTTGCCTACTGCCTCGGA | 8.13 Fold | 0.21 |
| S100a9.148: shRNA, SEQ ID NO: 177 (nucleic acid) TGCTGTTGACAGTGAGCGCCAGACAAATGGTGGAAGCACATAGTGAAGCCACAGATGTATGTGCTTCCACCATTTGTCTGATGCCTACTGCCTCGGA | 13.18 Fold | 2.68 |
| Centa1.940: shRNA, SEQ ID NO: 106 (nucleic acid) TGCTGTTGACAGTGAGCGCCCGAAGGCTCATGTACTTCAATAGTGAAGCCACAGATGTATTGAAGTACATGAGCCTTCGGTTGCCTACTGCCTCGGA | 8.24 Fold | 1.13 |
| Klf5.581: shRNA, SEQ ID NO: 135 (nucleic acid) TGCTGTTGACAGTGAGCGCTCCGATAATTTCAGAGCATAATAGTGAAGCCACAGATGTATTATGCTCTGAAATTATCGGAATGCCTACTGCCTCGGA | 9.37 Fold | 1.01 |
| Fas.1344: shRNA, SEQ ID NO: 118 (nucleic acid) TGCTGTTGACAGTGAGCGCGAGGAGAATTATAAACTGAAATAGTGAAGCCACAGATGTATTTCAGTTTATAATTCTCCTCATGCCTACTGCCTCGGA | 8.57 Fold | 1.36 |
| Slc11a1.307: shRNA, SEQ ID NO: 178 (nucleic acid) TGCTGTTGACAGTGAGCGCAACATTGAGTCCGACCTTCAATAGTGAAGCCACAGATGTATTGAAGGTCGGACTCAATGTTTTGCCTACTGCCTCGGA | 9.52 Fold | 0.41 |
| Hexa.1510: shRNA, SEQ ID NO: 131 (nucleic acid) TGCTGTTGACAGTGAGCGAGAGCAGTAACCTGACAACTAATAGTGAAGCCACAGATGTATTAGTTGTCAGGTTACTGCTCCTGCCTACTGCCTCGGA | 1,777.36 Fold | 2.13 |
| Centd3.3993: shRNA, SEQ ID NO: 107 (nucleic acid) TGCTGTTGACAGTGAGCGCCTGGACCACAAGCATCCTTAATAGTGAAGCCACAGATGTATTAAGGATGCTTGTGGTCCAGTTGCCTACTGCCTCGGA | 13.37 Fold | 1.77 |
